# Values of other authors as cited in paper PMC6767322.
# Biological target: IL-2Rβ/γc (Homo sapiens) (UniProt P14784)
# Chain of UniProt P14784 (P14784 27-240, chain 1 of 2): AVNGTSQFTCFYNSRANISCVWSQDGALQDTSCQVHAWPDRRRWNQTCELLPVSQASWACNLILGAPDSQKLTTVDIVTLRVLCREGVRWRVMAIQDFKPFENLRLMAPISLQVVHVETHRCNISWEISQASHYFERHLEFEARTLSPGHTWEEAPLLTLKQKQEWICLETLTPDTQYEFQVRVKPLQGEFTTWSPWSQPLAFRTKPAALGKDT
# Chain of UniProt P14784 (P31785 23-262, chain 2 of 2, further chain): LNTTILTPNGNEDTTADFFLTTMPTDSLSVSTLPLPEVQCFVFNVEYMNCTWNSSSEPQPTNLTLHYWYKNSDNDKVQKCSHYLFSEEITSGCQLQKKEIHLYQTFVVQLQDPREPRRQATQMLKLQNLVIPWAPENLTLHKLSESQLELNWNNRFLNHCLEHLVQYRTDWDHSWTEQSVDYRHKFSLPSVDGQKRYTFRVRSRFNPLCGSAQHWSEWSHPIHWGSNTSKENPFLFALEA
substance,measurement,value
IL-15 (from UniProt P40933),Kd,0.03 µM
